Experimental data as given in IntAct's records for PubMed 22791719.

B1: Phospholipid-transporting ATPase accessory subunit LEM3 (Saccharomyces cerevisiae), P42838 (parent)
chain: MVNFDLGQVGEVFRRKDKGAIVSGDNPEEEEDVDASEFEEDEVKPVRTKNRRPKEDAFTQQRLAAINPVLTPRTVLPLYLLIAVVFVIVGGCILAQNSKVDEVTIYYQDCMTNATSSWSDIPSEHWQFVFHKYKTYNTAPQWRFVDDESDDFTKQRGTCQIRFTTPSDMKNNVYLNYVLEKFAANHRRYVLSFSEDQIRGEDASYETVHDATGINCKPLSKNADGKIYYPCGLIANSMFNDTFPLQLTNVGDTSNNYSLTNKGINWESDKKRYKKTKYNYTQIAPPPYWEKMYPDGYNETNIPDIQDWEEFQNWMRPGAFDKITKLIRINKNDTLPAGEYQLDIGLHWPVLEFNGKKGIYLTHGSHLGGRNPFLGIVYLIGGCICAAMALILLTFWLFGGRKIADASSLSWNMK
B2: Phospholipid-transporting ATPase accessory subunit CRF1 (Saccharomyces cerevisiae), P53740 (parent)
chain: MGLILRWKEKKQLSSKQNAQKSRKPANTSFRQQRLKAWQPILSPQSVLPLLILMACVFAPIGIGLVVSTISVQRLVVNYTECDALAPAKHFETIPSEYVDYHFSKKVAVQPQWMVLTDPELGNQTCRIQFEVPNHIKKSTYVYYRLTNFNQNYREYVQSLDLDQLKGKALIGNDLDPNCDPLRTVENKTIFPCGLIANSMFNDTFGTTLTGVNDTADYLLTTKGIAWDTDSHRYGKTEYNASDIVPPPNWAKLFPNGYTDDNIPDLQNWEQFKIWMRTAALPNFYKLAMKNETNGLGKGIYIADIELNYPVRSFYGTKSFVLTTNSIIGAGNEALGIVYLIVAGIATLFAILFLIKVIFKPRPMHDHSYLNFENSDTPFDESSVVSIPLREIL
B3: Phospholipid-transporting ATPase DRS2 (Saccharomyces cerevisiae), P39524 (parent)
chain: MNDDRETPPKRKPGEDDTLFDIDFLDDTTSHSGSRSKVTNSHANANYIPPSHVLPEETIDLDADDDNIENDVHENLFMSNNHDDQTSWNANRFDSDAYQPQSLRAVKPPGLFARFGNGLKNAFTFKRKKGPESFEMNHYNAVTNNELDDNYLDSRNKFNIKILFNRYILRKNVGDAEGNGEPRVIHINDSLANSSFGYSDNHISTTKYNFATFLPKFLFQEFSKYANLFFLCTSAIQQVPHVSPTNRYTTIGTLLVVLIVSAMKECIEDIKRANSDKELNNSTAEIFSEAHDDFVEKRWIDIRVGDIIRVKSEEPIPADTIILSSSEPEGLCYIETANLDGETNLKIKQSRVETAKFIDVKTLKNMNGKVVSEQPNSSLYTYEGTMTLNDRQIPLSPDQMILRGATLRNTAWIFGLVIFTGHETKLLRNATATPIKRTAVEKIINRQIIALFTVLIVLILISSIGNVIMSTADAKHLSYLYLEGTNKAGLFFKDFLTFWILFSNLVPISLFVTVELIKYYQAFMIGSDLDLYYEKTDTPTVVRTSSLVEELGQIEYIFSDKTGTLTRNIMEFKSCSIAGHCYIDKIPEDKTATVEDGIEVGYRKFDDLKKKLNDPSDEDSPIINDFLTLLATCHTVIPEFQSDGSIKYQAASPDEGALVQGGADLGYKFIIRKPNSVTVLLEETGEEKEYQLLNICEFNSTRKRMSAIFRFPDGSIKLFCKGADTVILERLDDEANQYVEATMRHLEDYASEGLRTLCLAMRDISEGEYEEWNSIYNEAATTLDNRAEKLDEAANLIEKNLILIGATAIEDKLQDGVPETIHTLQEAGIKIWVLTGDRQETAINIGMSCRLLSEDMNLLIINEETRDDTERNLLEKINALNEHQLSTHDMNTLALVIDGKSLGFALEPELEDYLLTVAKLCKAVICCRVSPLQKALVVKMVKRKSSSLLLAIGDGANDVSMIQAAHVGVGISGMEGMQAARSADIAVGQFKFLKKLLLVHGSWSYQRISVAILYSFYKNTALYMTQFWYVFANAFSGQSIMESWTMSFYNLFFTVWPPFVIGVFDQFVSSRLLERYPQLYKLGQKGQFFSVYIFWGWIINGFFHSAIVFIGTILIYRYGFALNMHGELADHWSWGVTVYTTSVIIVLGKAALVTNQWTKFTLIAIPGSLLFWLIFFPIYASIFPHANISREYYGVVKHTYGSGVFWLTLIVLPIFALVRDFLWKYYKRMYEPETYHVIQEMQKYNISDSRPHVQQFQNAIRKVRQVQRMKKQRGFAFSQAEEGGQEKIVRMYDTTQKRGKYGELQDASANPFNDNNGLGSNDFESAEPFIENPFADGNQNSNRFSSSRDDISFDI
partner: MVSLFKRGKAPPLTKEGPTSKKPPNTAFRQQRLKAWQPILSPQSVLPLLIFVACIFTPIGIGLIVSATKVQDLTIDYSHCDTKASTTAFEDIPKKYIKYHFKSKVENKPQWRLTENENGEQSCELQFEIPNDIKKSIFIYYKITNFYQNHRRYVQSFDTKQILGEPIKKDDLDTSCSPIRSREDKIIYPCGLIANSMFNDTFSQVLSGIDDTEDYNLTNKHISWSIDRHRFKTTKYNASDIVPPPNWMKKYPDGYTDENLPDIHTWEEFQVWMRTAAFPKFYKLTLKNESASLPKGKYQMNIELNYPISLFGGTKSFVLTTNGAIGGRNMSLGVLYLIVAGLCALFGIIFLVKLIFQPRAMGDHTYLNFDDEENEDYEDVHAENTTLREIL

Variants of: B1
Details: with atc5_yeast DNF1, P32660
Chain of atc5_yeast DNF1, P32660 (P32660 whole entry): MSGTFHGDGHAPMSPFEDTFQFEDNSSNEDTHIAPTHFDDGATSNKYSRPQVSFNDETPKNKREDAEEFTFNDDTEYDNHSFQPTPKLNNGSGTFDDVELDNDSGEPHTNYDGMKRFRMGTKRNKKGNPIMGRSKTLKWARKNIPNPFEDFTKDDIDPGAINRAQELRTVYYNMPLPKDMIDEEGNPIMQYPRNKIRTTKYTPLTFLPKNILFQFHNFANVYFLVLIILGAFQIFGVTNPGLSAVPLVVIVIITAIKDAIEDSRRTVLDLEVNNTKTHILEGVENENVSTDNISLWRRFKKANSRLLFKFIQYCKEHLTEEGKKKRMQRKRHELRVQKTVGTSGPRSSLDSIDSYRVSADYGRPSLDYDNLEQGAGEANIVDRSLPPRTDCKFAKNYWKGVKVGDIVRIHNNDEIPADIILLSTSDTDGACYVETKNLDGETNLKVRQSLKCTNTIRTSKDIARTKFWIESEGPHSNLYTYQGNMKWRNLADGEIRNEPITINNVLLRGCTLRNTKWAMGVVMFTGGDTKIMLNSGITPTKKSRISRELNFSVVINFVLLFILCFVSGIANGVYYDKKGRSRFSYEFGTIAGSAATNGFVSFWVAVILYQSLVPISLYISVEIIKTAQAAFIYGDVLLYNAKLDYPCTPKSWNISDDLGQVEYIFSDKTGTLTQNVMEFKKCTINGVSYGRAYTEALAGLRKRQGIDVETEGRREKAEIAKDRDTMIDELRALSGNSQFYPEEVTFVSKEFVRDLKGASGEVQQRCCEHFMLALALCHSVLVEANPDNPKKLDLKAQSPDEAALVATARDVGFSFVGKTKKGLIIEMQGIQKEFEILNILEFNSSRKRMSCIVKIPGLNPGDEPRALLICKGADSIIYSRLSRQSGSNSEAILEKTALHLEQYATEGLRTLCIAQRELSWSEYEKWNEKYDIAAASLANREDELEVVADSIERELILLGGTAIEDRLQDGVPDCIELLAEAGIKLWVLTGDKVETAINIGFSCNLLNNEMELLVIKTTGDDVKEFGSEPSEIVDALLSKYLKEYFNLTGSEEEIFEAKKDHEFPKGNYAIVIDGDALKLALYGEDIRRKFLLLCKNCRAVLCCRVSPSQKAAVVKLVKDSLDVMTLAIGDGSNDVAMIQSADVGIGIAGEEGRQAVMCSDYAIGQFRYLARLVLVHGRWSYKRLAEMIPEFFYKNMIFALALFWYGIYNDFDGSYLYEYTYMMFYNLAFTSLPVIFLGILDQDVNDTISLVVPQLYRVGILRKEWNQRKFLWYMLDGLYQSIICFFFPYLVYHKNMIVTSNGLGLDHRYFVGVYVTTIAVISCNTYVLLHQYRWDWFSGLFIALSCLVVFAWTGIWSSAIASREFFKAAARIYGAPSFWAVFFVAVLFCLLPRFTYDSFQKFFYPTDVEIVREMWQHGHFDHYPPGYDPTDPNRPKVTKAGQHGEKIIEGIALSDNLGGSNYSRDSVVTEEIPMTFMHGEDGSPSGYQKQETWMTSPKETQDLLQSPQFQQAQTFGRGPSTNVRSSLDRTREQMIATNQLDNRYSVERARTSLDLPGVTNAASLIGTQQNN

Variant	effect of a mutation on the interaction
MVNFDLGQVGEVFRRKDKGAIVSGDNPEEEEDVDASEFEEDEVKPVRTKNRRPKEDAFTQQRLAAINPVLTPRTVLPLYLLIAVVFVIVGGCILAQNSKVDEVTIYYQDCMTNATSSWSDIPSEHWQFVFHKYKTYNTAPQWRFVDDESDDFTKQRGTCQIRFTTPSDMKNNVYLNYVLEKFAANHRRYVLSFSEDQIRGEDASYETVHDATGINCKPLSKNADGKIYYPCGLIANSMFNDTFPLQLTNVGDTSNNYSLTNKGINWESDKKRYKKTKYNYTQIAPPPYWEKMYPDGYNETNIPDIQDWEEFQNWMRPGAFDKITKLIRINKNDTLPAGEYQLDIGLHWPVLEFNGKKGIYLTHGSHLGGRNPFLEIVYLIGGCICAAMALILLTFWLFGGRKIADASSLSWNMK [G375E]	disrupting interaction strength
MVNFDLGQVGEVFRRKDKGAIVSGDNPEEEEDVDASEFEEDEVKPVRTKNRRPKEDAFTQQRLAAINPVLTPRTVLPLYLLIAVVFVIVGGCILAQNSKVDEVTIYYQDCMTNATSSWSDIPSEHWQFVFHKYKTYNTAPQWRFVDDESDDFTKQRGTAQIRFTTPSDMKNNVYLNYVLEKFAANHRRYVLSFSEDQIRGEDASYETVHDATGINCKPLSKNADGKIYYPCGLIANSMFNDTFPLQLTNVGDTSNNYSLTNKGINWESDKKRYKKTKYNYTQIAPPPYWEKMYPDGYNETNIPDIQDWEEFQNWMRPGAFDKITKLIRINKNDTLPAGEYQLDIGLHWPVLEFNGKKGIYLTHGSHLGGRNPFLGIVYLIGGCICAAMALILLTFWLFGGRKIADASSLSWNMK [C159A]	disrupting interaction strength

The remaining lines, values ahead:

effect of a mutation on the interaction	Variant
disrupting interaction strength	MVNFDLGQVGEVFRRKDKGAIVSGDNPEEEEDVDASEFEEDEVKPVRTKNRRPKEDAFTQQRLAAINPVLTPRTVLPLYLLITVVFVIVGGCILAQNSKVDEVTIYYQDCMTNATSSWSDIPSEHWQFVFHKYKTYNTAPQWRFVDDESDDFTKQRGTCQIRFTTPSDMKNNVYLNYVLEKFAANHRRYVLSFSEDQIRGEDASYETVHDATGINCKPLSKNADGKIYYPCGLIANSMFNDTFPLQLTNVGDTSNNYSLTNKGINWESDKKRYKKTKYNYTQIAPPPYWEKMYPDGYNETNIPDIQDWEEFQNWMRPGAFDKITKLIRINKNDTLPAGEYQLDIGLHWPVLEFNGKKGIYLTHGSHLGGRNPFLGIVYLIGGCICAAMALILLTFWLFGGRKIADASSLSWNMK [A83T]
disrupting interaction strength	MVNFDLGQVGEVFRRKDKGAIVSGDNPEEEEDVDASEFEEDEVKPVRTKNRRPKEDAFTQQRLAAINPVLTPRTVLPLYLLIAVVFVIVGGCILAQNSKVDEVTIYYQDCMTNATSSWSDIPSEHWQFVFHKYKTYNTAPQWRFVDDESDDFTKQRGTCQIRFTTPSDMKNNVYLNYVLEKFAANHRRYVLSFSEDQIRGEDASYETVHDATGINAKPLSKNADGKIYYPCGLIANSMFNDTFPLQLTNVGDTSNNYSLTNKGINWESDKKRYKKTKYNYTQIAPPPYWEKMYPDGYNETNIPDIQDWEEFQNWMRPGAFDKITKLIRINKNDTLPAGEYQLDIGLHWPVLEFNGKKGIYLTHGSHLGGRNPFLGIVYLIGGCICAAMALILLTFWLFGGRKIADASSLSWNMK [C216A]

Variants of: B1
Details: with atc5_yeast DNF1, P32660
Remark: another data set of the same source

effect of a mutation on the interaction	Variant
decreasing interaction strength	MVNFDLGQVGEVFRRKDKGAIVSGDNPEEEEDVDASEFEEDEVKPVRTKNRRPKEDAFTQQRLAVINPVLTPRTVLPLYLLIAVVFVIVGGCILAQNSKVDEVTIYYQDCMTNATSSWSDIPSEHWQFVFHKYKTYNTAPQWRFVDDESDDFTKQRGTCQIRFTTPSDMKNNVYLNYVLEKFAANHRRYVLSFSEDQIRGEDASYETVHDATGINCKPLSKNADGKIYYPCGLIANSMFNDTFPLQLTNVGDTSNNYSLTNKGINWESDKKRYKKTKYNYTQIAPPPYWEKMYPDGYNETNIPDIQDWEEFQNWMRPGAFDKITKLIRINKNDTLPAGEYQLDIGLHWPVLEFNGKKGIYLTHGSHLGGRNPFLGIVYLIGGCICAAMALILLTFWLFGGRKIADASSLSWNMK [A65V]

Variants of: B2
Details: with atc8_yeast DNF3, Q12674
Chain of atc8_yeast DNF3, Q12674 (Q12674 whole entry): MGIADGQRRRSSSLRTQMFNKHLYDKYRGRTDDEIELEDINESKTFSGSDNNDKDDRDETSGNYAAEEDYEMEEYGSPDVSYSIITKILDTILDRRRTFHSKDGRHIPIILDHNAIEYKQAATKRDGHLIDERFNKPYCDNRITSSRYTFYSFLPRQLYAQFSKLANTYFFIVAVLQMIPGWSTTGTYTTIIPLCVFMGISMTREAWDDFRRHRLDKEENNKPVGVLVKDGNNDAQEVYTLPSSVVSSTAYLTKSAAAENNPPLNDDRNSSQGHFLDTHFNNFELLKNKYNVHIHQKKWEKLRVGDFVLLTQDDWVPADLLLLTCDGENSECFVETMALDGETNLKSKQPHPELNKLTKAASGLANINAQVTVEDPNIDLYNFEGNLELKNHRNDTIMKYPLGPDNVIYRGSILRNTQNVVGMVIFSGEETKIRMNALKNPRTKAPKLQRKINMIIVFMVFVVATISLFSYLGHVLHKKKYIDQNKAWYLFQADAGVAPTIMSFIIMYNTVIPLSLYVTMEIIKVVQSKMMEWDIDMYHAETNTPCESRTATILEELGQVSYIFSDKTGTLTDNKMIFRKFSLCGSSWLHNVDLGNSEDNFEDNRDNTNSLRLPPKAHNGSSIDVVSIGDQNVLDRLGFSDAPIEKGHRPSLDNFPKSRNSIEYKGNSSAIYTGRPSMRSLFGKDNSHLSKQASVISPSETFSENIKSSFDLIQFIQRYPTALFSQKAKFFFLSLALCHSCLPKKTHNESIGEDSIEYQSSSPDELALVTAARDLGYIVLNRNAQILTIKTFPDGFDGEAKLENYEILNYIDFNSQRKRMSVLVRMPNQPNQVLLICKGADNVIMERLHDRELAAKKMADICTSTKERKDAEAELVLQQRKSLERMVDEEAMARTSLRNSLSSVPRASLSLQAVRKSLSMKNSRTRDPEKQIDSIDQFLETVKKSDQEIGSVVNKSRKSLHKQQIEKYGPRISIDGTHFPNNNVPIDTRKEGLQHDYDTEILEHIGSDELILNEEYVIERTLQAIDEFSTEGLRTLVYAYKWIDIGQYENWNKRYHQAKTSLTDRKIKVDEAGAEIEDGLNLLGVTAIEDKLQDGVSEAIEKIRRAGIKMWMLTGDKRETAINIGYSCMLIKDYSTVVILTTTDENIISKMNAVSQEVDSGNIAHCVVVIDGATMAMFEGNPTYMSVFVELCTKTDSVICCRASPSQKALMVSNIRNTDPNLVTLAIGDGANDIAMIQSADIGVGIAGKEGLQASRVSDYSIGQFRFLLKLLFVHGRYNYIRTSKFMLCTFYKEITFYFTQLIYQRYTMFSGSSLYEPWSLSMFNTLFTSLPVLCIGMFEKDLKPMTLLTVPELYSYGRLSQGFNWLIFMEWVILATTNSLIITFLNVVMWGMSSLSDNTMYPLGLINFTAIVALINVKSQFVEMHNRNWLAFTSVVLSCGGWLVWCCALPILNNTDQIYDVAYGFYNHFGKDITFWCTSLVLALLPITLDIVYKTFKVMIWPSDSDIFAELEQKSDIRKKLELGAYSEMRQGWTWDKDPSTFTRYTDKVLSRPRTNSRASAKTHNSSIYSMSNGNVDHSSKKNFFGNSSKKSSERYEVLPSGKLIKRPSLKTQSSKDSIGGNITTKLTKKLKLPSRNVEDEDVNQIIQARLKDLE

effect of a mutation on the interaction	Variant
disrupting interaction strength	MGLILRWKEKKQLSSKQNAQKSRKPANTSFRQQRLKAWQPILSPQSVLPLLILMACVFAPIGIGLVVSTISVQRLVVNYTEADALAPAKHFETIPSEYVDYHFSKKVAVQPQWMVLTDPELGNQTCRIQFEVPNHIKKSTYVYYRLTNFNQNYREYVQSLDLDQLKGKALIGNDLDPNCDPLRTVENKTIFPCGLIANSMFNDTFGTTLTGVNDTADYLLTTKGIAWDTDSHRYGKTEYNASDIVPPPNWAKLFPNGYTDDNIPDLQNWEQFKIWMRTAALPNFYKLAMKNETNGLGKGIYIADIELNYPVRSFYGTKSFVLTTNSIIGAGNEALGIVYLIVAGIATLFAILFLIKVIFKPRPMHDHSYLNFENSDTPFDESSVVSIPLREIL [C82A]

Variants of: B3
Details: with cdc50_yeast CDC50, P25656

effect of a mutation on the interaction	Variant
with no effect	E342Q
disrupting interaction strength	G341L
disrupting interaction strength	D560N
